The array DNA melting data of Ke et al.

assay: melting temperature; melt of duplexes; settings: sodium 0.0675 M; strand 1 µM

First: CGACGTGCCAGATGTGCTG+CAGCACATTGAGCACGTCG ((((((((...((((((((+))))))))...))))))))
Second: CGACGTGCCTGATGTGCTG+CAGCACATCAAGCACGTCG ((((((((.((((((((((+)))))))))).))))))))
The Tm of the first is lower: 52.1 °C for the first, 56.6 °C for the second.

First: CGACGTGCCTCATGTGCTG+CAGCACATCGCGCACGTCG ((((((((...((((((((+))))))))...))))))))
Second: CGACGTGCTATATGTGCTG+CAGCACATGCAGCACGTCG (((((((((..((((((((+))))))))..)))))))))
The Tm of the first is lower: 46.6 °C for the first, 52.5 °C for the second.

Going from “CGACGTGCACTATGTGCTG+CAGCACATTACGCACGTCG ((((((((...((((((((+))))))))...))))))))” to “CGACGTGCTTAATGTGCTG+CAGCACATAGGGCACGTCG ((((((((...((((((((+))))))))...))))))))”, the Tm rises from 43.6 °C to 50 °C.

Compared with “CGACGTGCCAGATGTGCTG+CAGCACATCATGCACGTCG ((((((((..(((((((((+)))))))))..))))))))”, “CGACGTGCGTCATGTGCTG+CAGCACATGACGCACGTCG (((((((((((((((((((+)))))))))))))))))))” is higher in Tm: 53.4 °C for the first, 66.4 °C for the second.

First: CGACGTGCCAGATGTGCTG+CAGCACATTATGCACGTCG ((((((((...((((((((+))))))))...))))))))
Second: CGACGTGCTGTATGTGCTG+CAGCACATAAAGCACGTCG (((((((((.(((((((((+))))))))).)))))))))
The Tm of the first is lower: 50.5 °C for the first, 55.5 °C for the second.

Compared with “CGACGTGCGTTATGTGCTG+CAGCACATGGTGCACGTCG ((((((((...((((((((+))))))))...))))))))”, “CGACGTGCAGTATGTGCTG+CAGCACATCAAGCACGTCG ((((((((...((((((((+))))))))...))))))))” is higher in Tm: 48.3 °C for the first, 49.6 °C for the second.

First: CGACGTGCCGGATGTGCTG+CAGCACATATCGCACGTCG ((((((((...((((((((+))))))))...))))))))
Second: CGACGTGCATAATGTGCTG+CAGCACATTCCGCACGTCG ((((((((..(((((((((+)))))))))..))))))))
The Tm of the first is lower: 49.7 °C for the first, 50.2 °C for the second.

Going from “CGACGTGCCTAATGTGCTG+CAGCACATAAAGCACGTCG ((((((((.(.((((((((+)))))))).).))))))))” to “CGACGTGCCACATGTGCTG+CAGCACATCCGGCACGTCG (((((((((..((((((((+))))))))..)))))))))”, the Tm rises from 50.3 °C to 52.6 °C.

First: CGACGTGCGAAATGTGCTG+CAGCACATGCCGCACGTCG (((((((((..((((((((+))))))))..)))))))))
Second: CGACGTGCCGCATGTGCTG+CAGCACATGTAGCACGTCG ((((((((..(((((((((+)))))))))..))))))))
The Tm of the first is higher: 56 °C for the first, 54.4 °C for the second.

Compared with “CGACGTGCGACATGTGCTG+CAGCACATACAGCACGTCG ((((((((...((((((((+))))))))...))))))))”, “CGACGTGCATAATGTGCTG+CAGCACATGCCGCACGTCG ((((((((...((((((((+))))))))...))))))))” is lower in Tm: 53.1 °C for the first, 50.9 °C for the second.

First: CGACGTGCATAATGTGCTG+CAGCACATCAGGCACGTCG ((((((((.(.((((((((+)))))))).).))))))))
Second: CGACGTGCACGATGTGCTG+CAGCACATCAAGCACGTCG ((((((((..(((((((((+)))))))))..))))))))
The Tm of the first is lower: 50.2 °C for the first, 51.2 °C for the second.

Compared with “CGACGTGCCATATGTGCTG+CAGCACATACGGCACGTCG (((((((((.(((((((((+))))))))).)))))))))”, “CGACGTGCTCGATGTGCTG+CAGCACATAGTGCACGTCG ((((((((.(.((((((((+)))))))).).))))))))” is lower in Tm: 55.3 °C for the first, 49.8 °C for the second.

Compared with “CGACGTGCCAAATGTGCTG+CAGCACATTCCGCACGTCG ((((((((..(((((((((+)))))))))..))))))))”, “CGACGTGCGGTATGTGCTG+CAGCACATGCGGCACGTCG ((((((((.(.((((((((+)))))))).).))))))))” is higher in Tm: 50.1 °C for the first, 55.1 °C for the second.

Going from “CGACGTGCTCTATGTGCTG+CAGCACATTGTGCACGTCG ((((((((.(.((((((((+)))))))).).))))))))” to “CGACGTGCACAATGTGCTG+CAGCACATATTGCACGTCG (((((((((..((((((((+))))))))..)))))))))”, the Tm falls from 48.3 °C to 48 °C.

Going from “CGACGTGCGAGATGTGCTG+CAGCACATGGGGCACGTCG ((((((((...((((((((+))))))))...))))))))” to “CGACGTGCTACATGTGCTG+CAGCACATTCGGCACGTCG ((((((((...((((((((+))))))))...))))))))”, the Tm falls from 51.1 °C to 49.1 °C.

Compared with “CGACGTGCGTTATGTGCTG+CAGCACATAGGGCACGTCG ((((((((..(((((((((+)))))))))..))))))))”, “CGACGTGCGCGATGTGCTG+CAGCACATATGGCACGTCG ((((((((...((((((((+))))))))...))))))))” is lower in Tm: 52.5 °C for the first, 50.1 °C for the second.

Going from “CGACGTGCACTATGTGCTG+CAGCACATAGGGCACGTCG ((((((((.((((((((((+)))))))))).))))))))” to “CGACGTGCTTGATGTGCTG+CAGCACATCCTGCACGTCG ((((((((..(((((((((+)))))))))..))))))))”, the Tm falls from 58.9 °C to 54.5 °C.

Going from “CGACGTGCTAGATGTGCTG+CAGCACATTGTGCACGTCG ((((((((...((((((((+))))))))...))))))))” to “CGACGTGCCACATGTGCTG+CAGCACATGTGGCACGTCG (((((((((((((((((((+)))))))))))))))))))”, the Tm rises from 48.5 °C to 66.4 °C.
